Experimental data as given in a protein production outcome set (Wang et al. 2014).

Test: label from the status in PepcDB records
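Further: failed if final PepcDB status was selected cloned or expressed and not failed if soluble or beyond.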

Sequence	protein production
MEAKKYQAFWRGAIILTIASFVTKVLSAFYRIPYQNIAGDVGFYIYQQIYPFYGFCLILATYGFPVIISKMVAERLERGKQKEAEEIICVSFWFLLGIGFIGFFTLFFGAETIAVAMGDIHLDKLLRVISFSFLLMPFLSVARGYFQGFNNMMPTAVSQVIEQTIRVSIIVFLSLFLIAHGFDLYTVGAGAMLGSIAGGLIGIIVLILYMRQDFRSIFFKSAARIKGKRKIVKILFWQGLAICVSNLVLIFIQMADSVSFYSLLIGAGEQAENAKVLKGVYDRSIPLMQLGTVVTTSFSLSLIPIITAAKERGDLSFIQEKVKLAMKITFVIGLAAAIGLTCIIQPTNIMLFENSDGSDVLSILSLSILFSSLSITTASILQGLGQTFKPALFVVFAGCLKLALNYIFMPYFGVKGAAFATLCALIIISGLNSLLLTRAVSGSLINKRNMLGIVISGICMGFVLMMFTRVLQMSGLVINTEHRGSATLEALLGVAIGGLTYMFFILKLRVFTKKELGTVMKQEKKEGSLKKSG	failed
RLKLLYDAGLGIGTTLDVLRTADELAQVAVPRFADFVTVDLADAVLHGEEPAPTATDLRRTAVCGIRDDHPLYELGQLIDFLPSTPQARGYGSGYSELVTDLSTATGWHAQDPERTKAIIDYGIHSLIAAPIQARGVVLGMANFWRSKQHEPFVEEEMSLAEELVARAAVSIDNARRYTREHALAVTLQRSL	not failed
MRRQELARQCGERSKKDNKKGSAKAKKMEQMRNESRASTPSKDSNTSQSTASSTPTTSAGPGSKSEAGSTGTTTTNSTANSTTSRAHRKSTQSTPSTARPGTPSDKKEDPAAAETTEEEGPVAPKKKRMSEQRPSLTGSDVAEKPLPPTT	failed
MRCRVYYEDTDSEGVVYHANYLKYCERARSEFFFKQNVLPENEEGVFVIRSIKADFFTPASLGQVLEIRTQIKELRKVFVVLFQEIYCIQNASLEPMKPFKVFASEIKFGFVNRSTYSPIAIPKLFKELLNAI	failed
MTDVEKPVDNSGTLIDDILSPLKGVNEDLNVLVLGGDKVNNNTDTMMLVNFKPSTSKVSILSIPRDTKVKINGKKAKINSAYPTGGGELAVQTVSELFGIDVKYYVFVDTSSFRKIIDILGGVDYYVPVDMDYDDPLQGLSIHIKKGQHHFDGAMAEKFMRFRQYNNGRVNEYYDGSDLKRIDAQQNFIRELVRQKLNIFYLTKVDDIASTIFSNIDTNLNMSEVLKLTGSVSKVQADSINMLKVPGKSVLDGAWYYVIDSQETDKIINEYFRTRYKLEHHHHHH	not failed
MARSIDYGNLMHRAMRGLIQSVLEDVAEHGLPGAHHFFITFDTTHPDVAMADWLRARYPQEMTVVIQHWYENLSADDHGFSVTLNFGNQPEPLVIPFDAVRTFVDPSVEFGLRFETHEEDEEEETGGDEDPDGDDEPPRHDAQVVSLDKFRKLEHHHHHH	failed
MNRARTNDRRRAGDGPRRSRSAGRPQNSGRRPAAAPQGGEFALPKTITPALPAVETFAELDLPARMLAALGDQGVTEPFPIQAATLPNSLAGRDVLGRGRTGSGKTLAFGLALLARTAGKRAEPRRPLALVLVPTRELAQQVTDALTPYARAVGLRSATVVGGMSIGRQAGALRSGAEVVVATPGRLKDLIDRGDCALGDVTITVLDEADQMTDMGFMPQVTALLDQVAADGQRMLFSATLDRNVDKLVRRYLTDPVVHSVDPSAGAVTTMEHHVLHVQDEDKQRATIEIAARDGRVIMFLDTKHRVDRLVKHLLKSGVRAAGLHGGKSQPQRTRTLAQFKDGQVTALVATNVAARGIHVDNLDLVVNVDPPGDHKDYLHRGGRTARAGESGSVVTLVTPDQRREMTRLMSLAGITPQVTPVRSGEAELARITGAQTPSGVPVVITAPVVERPRRAAAGAGSPSRGRRGRSAQGRSGGQGTGTQARTGAAQSRTAGQSRTAAQGRPTGESPRRRPRRQSTGGSTGSAA	failed
MIEFTALDDLSLLRESVSLECKLAQGRDGKGALPDDFWPTYSAMANTDGGIVILGVRERKGQFEVAGIENPDKLRTELFNHLNNRQKVSVNLLRDEDVRAWPVEGKTLLVVEIPRARRQQRPVYLRGNPLGGHTYRRLHEGDRPLPDEDVKRMLAEQVEDSRDERILPGYGLDDLHLESLRAYRQLFANRDPSHPWNALADQAFLRQIGGWRQHRETGEAGLTLAGLLMFGQWSSITEAVPLCFLDYQERPADYATTVQWLDRIVPDGTWSGNVFDFYRRVVGKLTADIKVPFVLKGDIRQDDTPTHKALREALVNTLVHADYTGRISVLVVKEPAGFVLRNPGGLRVPAQQALQGGMSDCRNRTMQQMFLMIGLGERAGSGMSRIVHGWRDLGHELHLRESYEPHEHSVLEMFWAKGRGATLASESSEESSEESSEETGKKILHLLREEPSLTASALARRLQLTPRAIEKQLEHHHHHH	not failed
MKKLYRYVLFTFLLIFSQLSFANWDLTDNQPIEISAQATNIEADIRALPEQHFFSNNDYAQVKRLLSTTISQQKEHATALKEALATYREDSSNQNWIAVETVHQSLTSLNLSKEQLLKLTNSTTREQLTGFGPYGVTQFYSELSITKLNIEYYLHYQIRSFKNLLKDLTISPVPIISVIFKVLCVFFIFSWWMKNSSRLINDFKTSKLENGTKPNFFIRSIWYLTRAHKAIAWLLLITVTLRIVSTLPSLQHLIFLEIFTWWILGGSIAVSFILEFIYRNSKHNKKEIIALRLSTVRHYVWGIIVAGVILQISSRTLGQGTIYAWINSLMYLFFVLLTIHTLRKWKPTVFERIERVDPLPLSIQWAKRNQKTFLISIAATACGAAWLSWRALQHSIIALLSQYAAFSHALAYLFRIEVAKQTEVAREQSNLVRVKGTAAFDYIAPGSEDSELIEDYAKDEMSALSRYLLTESPAVCVLSGERGVGTTTLLNRILNKVKNATPIYINCPYDGYSALLPELAKQLGLDEESSERDILQYLRNSDTCYLLAFDSAQRLVKPKVNGLADLMKLTNLLRRARKSHRVVLAIEKSCWRFIDRARGERLLFDLVTFMPKWDEKQIGQLLESRITLSEGQPTISFDGLVLPRQWDEENLTEEERARNGFYRILWDYSDGNPTVALRFFRLSLHRDKDTDAILVRLFRAPHSDDLETMPKPMLAVLRSIVQLEVASPADVCDCSRLSMAEVISTLRYFQSRGYIEWSDDKARISDHWFRHITNVLHRQHLLVK	failed
MSAPQAPSAPHSPPDVPVMQVIFGLMLAIMLGALEQSIVAVVLPEIALQLNGFEDMAWVISAYLVASTVVTPIYGKLSDVLGRRSVLTFSIVLFVLASIACAMATTMPMLIVARILQGLGGGGLISVSQATIADVVPLRERGKYQGYVSGVWAVASMAGPVIGGYLAHFLSWRWIFWINIPLGLIALIVVRRALRHLPVSGRKHRIDYLGALLFGGGLSGVLVFLTRMGQGHSPLEPQTIGLLAAGLIGLVLFIWQERRAVDPVIPLKMLAVPTVAICCLTLFLCFFQLIAMSVLLPLRFQVVGGAGADTAALRLVPLTLAIPFGAYASGRLMSWSGRYKPLQLAGCLVAPIAIVGLAFVPPQAVVPAALVMIVLGLSIGLQLPSGLVATQNSVPPQQVGIATALTAFSRLLGGAVGVAVLTTVLIALLRHSGMAVSDLHGGEDVLMSMFRRAMDAGDQGDAAAVREAAEHAFRLLFLMSAGVSLIAPFFVMRLKEKTLRGSPAGAAASAAAE	failed
EKAEDCWELQISPELLAHGRQKILDLLNEGSARDLRSLQRIGPKKAQLIVGWRELHGPFSQVEDLERVEGITGKQMESFLKANILGLAAGQ	not failed
MIPTSREERLKGRRHVRTSEDRSFLVLLAAISVAFGWLLWPFSGALLWATLLAIIFAPLYRLCLETFPEWRNLAALSTVLVVVVMVLIPVAVVIASLVEQGGELYQRVQTGEISFAHPLQQLKSALPDWAASVSDRLAGIDLSALKERLSSLVVPAGQQLAGHAINIGQLTVEFVASLLVMLYLLFFFLRDGDELNLRIRDALPLRRSHTAAILDAFTLSVRGTIKGIILVALIQGALGGLIFWLLGLTAPLLAGALMALLSLLPVLGSALVWVPVGLYLLVAGAVTKGMILLVFGTFVIGLADNFLRPVLVGQSIRMPSYVVLLATLGGLATFGANGFVIGPLVAAMFLTAWHIFVGSKEQQEVRN	failed
MPYLAGCGAVLYVDVMPEGTLLTRGVSASPTRCGRTPPGGRGVWLLCATIFYWAVARFGMALFSLAPENITPLWLASGVGLIMCLEAGLSAVPCIALASAVANFPGLSASGGESPLLYAVLTGTADGLSAGLLAALGSRVLQGGITSVLDLLRGVVLVCLPATLIGGVAITLCLFTGGYVPRDVLCQMSFSLMAGDTLGVLLVFPLWRAWHVLPLPSRTELCWMAGVLCLCLLSIWSAFFVEGAAIHMLMPLLVLLSCNVRINGVMVVLFLTVIAVFIATAHRVGPFHMPTQGEAVMLLVSFAASTTLTTLGLSLYRHLLAQAGARATMWEQRAGIDPLTGLCNRARFDEVLLAELQRLQRQDSPLSLMMFDADHFKPYNDMYGHVAGDACLKRVAGVLRAVAHRASDVVARYGGEEFVCILPGTDRDSAYALAEKVRQGVRALAIPHVGSPVAGVLTVSAGVVTVHGCDGLDPQEVVAQVDRALYQAKGAGRDRVMVAKGAAKEGMQYGECALSGVQRLVWSEDYACGEPRIDASHRALLAKADSIMSSLGGADGLNARRACILALVDAVRMHFREEERVLAAIGYPKAGEHAVIHEALLQRGASLVAAWERGGMSLDDVVITLVHGMVMRHMLDDDSAFFEHVQQWGAGGTQP	failed
MMDVDHKTNLTLRKYFYTLKSMKFTSITYTLSAVLLLGFSIPLVFAQTPDSGLSADCQMPIPPNLNSVDHFLGMGHFQQDCKKDLSAAVAAFSQAIKLNPQAEEPYYHRANSYAAMGNYQAAVTDYTEVIRQNTGRLGFSTGAYWHRARAYEKLGEKQKAISDLTQLIGNNSSLNAEEYLFRANLYKELGNKESAIADYKIAEKLLQQYADGVFHTGMMDTRYEQMLDQVRNELSSMGVAVTVPKTTTGNILRTIAKTEVERALNLARLQSQHPTVKNFDAQLQDLYKQLANTQPQVESGVVKNLIANAAYEKIDDLKIERSQLLTKYTLDSPIIGVIDSQTSELESLIHRNKF	failed
DISEELDYERGRYLDAMIDNHKYTGKARAIIYGQPELALALAKVCFENGVNVKLIALGAKNKILEEALKEEIKSQREEVLVLDDTDFDTIEKYAKEFNVNLFIGNSDGRRMASRLGIEIIRVGFPIHDRV	failed
MYGEGDFYTIKSKRDYEFYLEADRLALGKNCKKPRLIGDDIWKFQRLLRQAEYYSNCQNSLLHKLYLKYILFRFHRMSIRLGFSIPINVFGPGLCIAHRGTIVVNKGARVGENCRIHACTNIGSGRDNIFLAPKIGNGVYIGPGAKIFGSVEIADNIAIGANSVVNRSFYERGISIAGVPAKKISNKGSDGMVIAATKTVSVPVSQETILEHHHHHH	not failed
QVPKKQTTSKILVRNIPFQANQREIRELFSTFGELKTVRLPKKMTGTGAHRGFGFVDFITKQDAKKAFNALCHSTHLYGRRLVLEWADSEVTVQ	not failed
MKKKLLNYLILLACLATVSVSCSGSAQAAVLGDDYPFSWKYGGFGVDPWTMYWRQCTSFAAYRLSNTNGFTLPIGYGNAITWGNIARANGHRVDMNPAVGSIAWFSAGVNGAGHMGHVAWVAEVHGDQVTIEEYNYDAGQGPEKYHKRSFHKSQVSGYIHFKDLESGTQNGNPTNSSIKVGDSVRFTGTFRVTSVSGNTITSQDLAGGTPTKHNIVDPSPVLEVDAQGNPTSDQYLNPGETFTIPGNFKVLAIDPPSDGILVQIGNLKTWVTQSVLEKILEHHHHHH	not failed
